In this assay the target is high affinity IL-2 receptor (IL-2R) consisting of CD122, CD132 and CD25, on CTLL-2 cells (mouse) (UniProt P01590). The assay can be described thus: cell-based or functional assay.
Chain of high affinity IL-2 receptor (IL-2R) consisting of CD122, CD132 and CD25, on CTLL-2 cells (mouse) (P01590 22-268, chain 1 of 3): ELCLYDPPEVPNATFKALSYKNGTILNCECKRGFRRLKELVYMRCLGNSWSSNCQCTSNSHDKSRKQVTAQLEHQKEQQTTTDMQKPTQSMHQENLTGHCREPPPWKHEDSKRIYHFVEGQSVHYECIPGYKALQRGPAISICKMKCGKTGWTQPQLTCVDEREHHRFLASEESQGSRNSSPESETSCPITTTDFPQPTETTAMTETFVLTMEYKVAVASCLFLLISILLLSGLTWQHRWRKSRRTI
Chain of high affinity IL-2 receptor (IL-2R) consisting of CD122, CD132 and CD25, on CTLL-2 cells (mouse) (P16297 27-539, chain 2 of 3, further chain): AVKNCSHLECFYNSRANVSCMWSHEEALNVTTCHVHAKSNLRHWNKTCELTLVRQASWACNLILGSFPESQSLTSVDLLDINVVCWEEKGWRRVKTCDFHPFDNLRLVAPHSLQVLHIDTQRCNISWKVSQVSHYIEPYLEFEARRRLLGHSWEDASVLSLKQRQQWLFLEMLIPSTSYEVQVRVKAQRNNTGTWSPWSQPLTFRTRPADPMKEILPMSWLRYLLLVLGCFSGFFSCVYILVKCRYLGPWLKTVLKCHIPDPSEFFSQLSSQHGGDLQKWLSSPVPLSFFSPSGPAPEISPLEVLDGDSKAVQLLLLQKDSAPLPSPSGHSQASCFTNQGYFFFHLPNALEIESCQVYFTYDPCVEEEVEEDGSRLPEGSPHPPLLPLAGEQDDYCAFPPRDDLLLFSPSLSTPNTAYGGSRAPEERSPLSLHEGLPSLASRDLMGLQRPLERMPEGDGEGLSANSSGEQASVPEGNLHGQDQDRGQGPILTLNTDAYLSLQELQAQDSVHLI
Chain of high affinity IL-2 receptor (IL-2R) consisting of CD122, CD132 and CD25, on CTLL-2 cells (mouse) (P34902 23-369, chain 3 of 3, further chain): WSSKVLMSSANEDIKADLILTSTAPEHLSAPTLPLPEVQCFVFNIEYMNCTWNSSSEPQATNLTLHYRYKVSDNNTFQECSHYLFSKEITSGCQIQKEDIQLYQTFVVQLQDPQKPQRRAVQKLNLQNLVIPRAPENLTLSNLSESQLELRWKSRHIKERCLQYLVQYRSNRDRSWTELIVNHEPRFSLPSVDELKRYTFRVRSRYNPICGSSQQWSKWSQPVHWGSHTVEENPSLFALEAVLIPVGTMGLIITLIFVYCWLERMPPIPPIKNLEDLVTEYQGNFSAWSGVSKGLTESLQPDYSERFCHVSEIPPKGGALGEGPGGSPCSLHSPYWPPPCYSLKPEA

“rhIL-2 (from UniProt P60568 21-153) (ligand)” registered a CTLL-2 cell proliferation, EC50 of 6.4 pM.

For the origin of these results see patent US20230365642A1.
